In PMC11697048, “Ce6-GFFY is a novel photosensitizer for colorectal cancer therapy” (Genes & Diseases, 2024):

What was measured:
CT26 cells [1] = assay: ROS detection with DCFH-DA; type: cell-based, mouse; settings: CT26, 5 μM, 1 h, 660 nm laser 1 min 0.02 W/cm^2, confocal laser scanning microscopy
Experimental: (§1) For cell endocytosis detection, CT26 and HCT116 cells were treated with Ce6 molecules (5 μM) or Ce6-GFFY (5 μM) at 37 °C for 1 h. For ROS detection, cells were treated with Ce6 molecules (5 μM), GFFY peptide (5 μM), or Ce6-GFFY (5 μM) at 37 °C for 1 h and then treated with or without laser irradiation for 1 min (660 nm, 0.02 W/cm^2). Afterward, the cells were collected and stained with DCFH-DA (1:5000) at 37 °C for 20 min. For cell death analysis, cells were treated with Ce6 molecules, GFFY peptide, or Ce6-GFFY (CT26, 10 μM; HCT116, 5 μM) at 37 °C for 1 h and then treated with or without laser irradiation for 1 min (660 nm, 0.02 W/cm^2). After incubation at 37 °C for 24 h, the cells were collected and stained with propidium iodide (1:100) and annexin V-FITC (1:200). For examination of CRT expression, cells were treated with Ce6 molecules, GFFY peptide, or Ce6-GFFY (CT26, 10 μM; HCT116, 5 μM) at 37 °C for 1 h and then treated with or without laser irradiation for 1 min (660 nm, 0.02 W/cm^2). After incubation at 37 °C for 8 h, the cells were collected and blocked with 5% bull serum albumin for 10 min and then incubated with a primary anti-calreticulin antibody (#ab92516, Abcam), followed by the incubation of an Alexa Fluor 488-conjugated secondary antibody (#406416, BioLegend). […]

HCT116 cells [2] = assay: ROS detection with DCFH-DA; type: cell-based, human; settings: HCT116, 5 μM, 1 h, 660 nm laser 1 min 0.02 W/cm^2, confocal laser scanning microscopy
Experimental: as §1

[3] = In vivo imaging, kinetics of Ce6 fluorescence in mice; design: species or system mouse
Experimental: (§2) For in vivo imaging, Ce6-GFFY (5 mg/kg) and Ce6 molecules (2.5 mg/kg) were injected into mice burdened with or without xenograft tumors through the tail vein (100 μL/mouse), and the fluorescence intensity of mice or main tissues such as brain, heart, liver, spleen, lung, kidney, intestine, and stomach was detected and analyzed with an IVIS spectrum imaging system (PerkinElmer, MA, USA). All animal experiments were approved by The Institutional Animal Care and Use Committee at Sun Yat-sen Cancer Center.

CT26 cells [4] = assay: Cell endocytosis (uptake) detection by Ce6 fluorescence; type: cell-based, mouse; settings: CT26, 5 μM, 37 °C, 1 h
Experimental: as §1

CT26 cells [5] = assay: CCK-8 assay; type: cell-based, mouse; settings: drug 1 h, 660 nm laser 1 min at 0.02 W/cm^2, then 24 h at 37 °C, read-out: IC50 (proliferation)
Experimental: (§3) Cell viability was measured using a CCK-8 cell counting kit (Beyotime Biotechnology, Shanghai, China). 7000 cells were seeded in 96-well plates and treated with drugs at various concentrations for 1 h and then treated with or without laser irradiation for 1 min (660 nm, 0.02 W/cm^2), followed by incubation at 37 °C for 24 h. After the addition of the CCK-8 reagent, the cells were continually incubated at 37 °C for 3 h before being detected by a microplate reader (TECAN, Victoria, Austria).

CT26-derived tumors = assay: In vivo imaging, tumor targeting in mice bearing CT26-derived tumors; design: species or system mouse; settings: tail vein, 5 mg/kg, n = 3
Experimental: as §2

HCT116 cells [6] = assay: Cell endocytosis (uptake) detection by Ce6 fluorescence; type: cell-based, human; settings: HCT116, 5 μM, 37 °C, 1 h
Experimental: as §1

HCT116 cells [7] = assay: CCK-8 assay; type: cell-based, human; settings: drug 1 h, 660 nm laser 1 min at 0.02 W/cm^2, then 24 h at 37 °C, read-out: IC50 (proliferation)
Experimental: as §3

[8] = Toxicity evaluation in mice (blood routine, liver and kidney function, H&E pathology); type: in vivo, mouse; settings: 5 mg/kg i.v. plus laser irradiation
Description: Four-to-six-week-old BALB/c mice and BALB/c nude mice were purchased from Guangdong Medical Laboratory Animal Center (Guangzhou, China). All mice were maintained under standard conditions and treated according to institutional guidelines for animal care. For primary tumor therapy, 2 × 10^5 CT26 cells were suspended in a 1:1 mixture of PBS and matrigel and subcutaneously injected into the flanks of the mice. When the volume of tumors reached 70 mm^3, the mice were randomized into treatment and control groups. The treatment groups received tail intravenous injections of GFFY (2.5 mg/kg), Ce6 (2.5 mg/kg), or Ce6-GFFY (5 mg/kg), and the control group received PBS treatment, both groups were treated with once 660 nm laser irradiation for 8 min (1 min on, 1 min off; 4 cycles) on the tumor region at a power of 0.2 W/cm^2. Tumor volume and mouse body weight were recorded every three days, and tumor tissues were collected and weighed at the end of treatment. Main organs such as the heart, liver, spleen, lung, and kidney were collected for pathological analysis and the blood was collected for blood routine examination.

[9] = confocal laser scanning microscopy, versus Ce6 molecules
[10] = flow cytometry, Ce6 fluorescence

Row | time after injection by which almost cleared ([3]; mice, tail vein injection, 2.5 mg/kg, living imaging of Ce6 luminescence, n = 5) | half-life in mice ([3]; mice, tail vein injection, Ce6-GFFY 5 mg/kg, Ce6 2.5 mg/kg, from Ce6 luminescence changes, IVIS imaging, n = 5) | Structure (SMILES) | ROS production upon 660 nm laser irradiation (CT26 cells [1]) | ROS production upon 660 nm laser irradiation (HCT116 cells [2]) | cellular Ce6 fluorescence (CT26 cells [4]; [9]) | cellular uptake (Ce6 positive cells) (CT26 cells [4]; [10]) | IC50 (CT26 cells [5]) | accumulation in tumor regions after injection (CT26-derived tumors; living imaging) | distribution in tumor and normal tissues after 24 h (CT26-derived tumors; organs and tumors imaged at 24 h) | cellular Ce6 fluorescence (HCT116 cells [6]; [9]) | cellular uptake (Ce6 positive cells) (HCT116 cells [6]; [10]) | retention time in the mice ([3]; mouse, in vivo, 5 mg/kg) | IC50 (HCT116 cells [7]) | hepatic and renal function (AST, ALT, BUN) ([8]; end of treatment, n = 5) | murine blood routine analysis (inflammatory responses) ([8]; end of treatment, n = 5) | histopathological analysis of heart, liver, spleen, lung, and kidney (H&E) ([8]; n = 4)
1 | ≤ 12 h | 3 h | C=Cc1c(C)c2cc3nc(c(CC(=O)O)c4[nH]c(cc5nc(cc1[nH]2)C(C)=C5CC)c(C)c4C(=O)O)[C@@H](CCC(=O)O)[C@@H]3C [Ce6, chlorin e6] | minimal | minimal | – | – | – | – | – | – | – | – | – | – | – | –
2 | – | – | C=Cc1c(C)c2cc3nc(c(CC(=O)NCC(=O)N[C@@H](Cc4ccccc4)C(=O)N[C@@H](Cc4ccccc4)C(=O)N[C@@H](Cc4ccc(O)cc4)C(=O)O)c4[nH]c(cc5nc(cc1[nH]2)C(C)=C5CC)c(C)c4C(=O)O)[C@@H](CCC(=O)O)[C@@H]3C [Ce6-GFFY] | – | – | noticeable aggregation of Ce6 fluorescence | much higher than Ce6 molecules | 6.27 µM | accumulated rapidly in the tumor regions | stable aggregation in tumor tissues | noticeable aggregation of Ce6 fluorescence | much higher than Ce6 molecules | over 48 h | 5.3 µM | did not exert an impact on the hepatic and renal function | did not elicit any significant inflammatory responses | no apparent toxicity
